Assay results as given in article PMC2866327 (2010).
Square brackets hold non-standard residues; d marks the D form. Ends that are not written are not given here.

Molecular target: insulin-degrading enzyme (recombinant human IDE) (human, UniProt P14735 1-1019)

B1: retro-inverso peptide hydroxamate Xaa-Arg-Tyr with Phe at P1' (peptide)
peptide: Phe-[dR]-[dY]
modifications: not fully specified (residue 1, N-terminus); also: retro-inverso (reversed backbone)
Ki: 20 µM
